Legend:
Test in all cases: co-IP; anti-Flag M2 affinity gel on extracts of human HEK 293 cells transfected with mouse 3xFlag Cyclin A2 alleles; endogenous partners detected by Western blot; densitometry (ImageQuantTL) normalised to immunoprecipitated Cyclin A2, percent of WT; repeated 3 times
Details in all cases: partners not purified
[1] = target: T1, Cyclin A2 L204A, C-terminally fused to 3 Flag tags (mouse, UniProt P51943 1-422, L204A)
T1 construct: Cyclin A2, mouse; cDNA obtained from NIH3T3 cells by RT-PCR; source: NIH3T3 or HEK 293 cells, transfected, in cell extracts; not shown: 3xFlag, C-terminal, kept
T1 sequence (P51943 whole entry L204A, the tested form may be a part): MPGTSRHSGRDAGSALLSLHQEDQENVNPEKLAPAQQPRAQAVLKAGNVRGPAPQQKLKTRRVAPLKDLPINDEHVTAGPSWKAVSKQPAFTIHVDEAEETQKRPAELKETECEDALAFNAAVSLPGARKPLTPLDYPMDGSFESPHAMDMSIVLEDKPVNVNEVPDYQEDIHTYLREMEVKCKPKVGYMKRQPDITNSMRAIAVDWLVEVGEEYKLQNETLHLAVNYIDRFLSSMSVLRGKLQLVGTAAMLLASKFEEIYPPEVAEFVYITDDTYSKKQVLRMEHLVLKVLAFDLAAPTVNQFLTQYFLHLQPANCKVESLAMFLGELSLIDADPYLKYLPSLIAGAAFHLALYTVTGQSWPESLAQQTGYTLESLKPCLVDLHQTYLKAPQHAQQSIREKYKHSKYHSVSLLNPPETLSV

[2] = target: T2, Cyclin A2 WT, C-terminally fused to 3 Flag tags (mouse, UniProt P51943 1-422)
T2 construct: Cyclin A2, mouse; cDNA obtained from NIH3T3 cells by RT-PCR; Same construct transfected into mouse NIH3T3 (assay a1) and human HEK 293 (assay a2); also called WT Cyclin A2 allele; Flag tagged WT Cyclin A2; source: NIH3T3 or HEK 293 cells, transfected, in cell extracts; not shown: 3xFlag, C-terminal, kept
T2 sequence (P51943 whole entry, the tested form may be a part): as the sequence (P51943 whole entry L204A, the tested form may be a part) above, with A204L counted along it

[3] = target: T3, Cyclin A2 M200A, C-terminally fused to 3 Flag tags (mouse, UniProt P51943 1-422, M200A)
T3 construct: Cyclin A2, mouse; cDNA obtained from NIH3T3 cells by RT-PCR; source: NIH3T3 or HEK 293 cells, transfected, in cell extracts; not shown: 3xFlag, C-terminal, kept
T3 sequence (P51943 whole entry M200A, the tested form may be a part): as the sequence (P51943 whole entry L204A, the tested form may be a part) above, with M200A, A204L counted along it

[4] = target: T4, Cyclin A2 D171A, C-terminally fused to 3 Flag tags (mouse, UniProt P51943 1-422, D171A)
T4 construct: Cyclin A2, mouse; cDNA obtained from NIH3T3 cells by RT-PCR; source: NIH3T3 or HEK 293 cells, transfected, in cell extracts; not shown: 3xFlag, C-terminal, kept
T4 sequence (P51943 whole entry D171A, the tested form may be a part): as the sequence (P51943 whole entry L204A, the tested form may be a part) above, with D171A, A204L counted along it

B1: p107 (endogenous, HEK 293) (natural protein, human (endogenous in HEK 293), UniProt P28749 1-1068, looked up)
chain: MFEDKPHAEGAAVVAAAGEALQALCQELNLDEGSAAEALDDFTAIRGNYSLEGEVTHWLACSLYVACRKSIIPTVGKGIMEGNCVSLTRILRSAKLSLIQFFSKMKKWMDMSNLPQEFRERIERLERNFEVSTVIFKKYEPIFLDIFQNPYEEPPKLPRSRKQRRIPCSVKDLFNFCWTLFVYTKGNFRMIGDDLVNSYHLLLCCLDLIFANAIMCPNRQDLLNPSFKGLPSDFHTADFTASEEPPCIIAVLCELHDGLLVEAKGIKEHYFKPYISKLFDRKILKGECLLDLSSFTDNSKAVNKEYEEYVLTVGDFDERIFLGADAEEEIGTPRKFTRDTPLGKLTAQANVEYNLQQHFEKKRSFAPSTPLTGRRYLREKEAVITPVASATQSVSRLQSIVAGLKNAPSDQLINIFESCVRNPVENIMKILKGIGETFCQHYTQSTDEQPGSHIDFAVNRLKLAEILYYKILETVMVQETRRLHGMDMSVLLEQDIFHRSLMACCLEIVLFAYSSPRTFPWIIEVLNLQPFYFYKVIEVVIRSEEGLSRDMVKHLNSIEEQILESLAWSHDSALWEALQVSANKVPTCEEVIFPNNFETGNGGNVQGHLPLMPMSPLMHPRVKEVRTDSGSLRRDMQPLSPISVHERYSSPTAGSAKRRLFGEDPPKEMLMDKIITEGTKLKIAPSSSITAENVSILPGQTLLTMATAPVTGTTGHKVTIPLHGVANDAGEITLIPLSMNTNQESKVKSPVSLTAHSLIGASPKQTNLTKAQEVHSTGINRPKRTGSLALFYRKVYHLASVRLRDLCLKLDVSNELRRKIWTCFEFTLVHCPDLMKDRHLDQLLLCAFYIMAKVTKEERTFQEIMKSYRNQPQANSHVYRSVLLKSIPREVVAYNKNINDDFEMIDCDLEDATKTPDCSSGPVKEERGDLIKFYNTIYVGRVKSFALKYDLANQDHMMDAPPLSPFPHIKQQPGSPRRISQQHSIYISPHKNGSGLTPRSALLYKFNGSPSKSLKDINNMIRQGEQRTKKRVIAIDSDAESPAKRVCQENDDVLLKRLQDVVSERANH
notes: p107, endogenous protein of human HEK 293 cells, detected by Western blot; source: endogenous, HEK 293 cell extract
- percent co-precipitated relative to WT [1]: 5.3%
- percent co-precipitated relative to WT [2]: 100%
- percent co-precipitated relative to WT [3]: 57.4%
- percent co-precipitated relative to WT [4]: 95%
